The text below walks through data of patent US20120045392A1 (CASE WESTERN RESERVE UNIVERSITY, published 2012).

In assay [1] the target is T1, pyro-Glu(3-40/42)-Aβ (N-terminal pyroglutamate (pyro-Glu at Aβ position 3)).
T1 construct: also called pyro-Glu(3-40/42) monomers; N-terminally modified pyro-glutamate Aβ
As to the kind of experiment: SPR or EU-ELISA (Table 1). Column 5 has no head of its own and is read as under the head 'KD for pyro-Glu (3-40/42)' printed at c4. Restated as (37.3 nM) in the line below. Differs from c4 (4.17E-9); second, unheaded column (c5) beside c4 under 'KD for pyro-Glu (3-40/42)'; probably the other peptide length (3-40 or 3-42), which the patent does not state.

For the next assay, the target named is T2, Aβ (1-40) fibrils.
T2 construct: Fibrillar aggregate of wild-type Aβ(1-40)
The experiment in a line: SPR / Europium ELISA.

For another assay, the target named is T3, wild-type Aβ(1-40).
T3 construct: also called WT Aβ(1-40); Aβ (1-40) monomers
As to the kind of experiment: SPR (Table 1).

Assay [2] concerns the target T1, pyro-Glu(3-40/42)-Aβ. The experiment in a line: SPR; restated as (4.2 nM) in the line below. For orientation: Surface plasmon resonance follows binding to a sensor surface in real time, without labels.
For assay [3], the target named is T4, pyro-Glu(3-40/42) fibrils (N-terminal pyroglutamate (pyro-Glu at Aβ position 3)).
T4 construct: Fibrillar aggregate of pyro-Glu(3-40/42)-Aβ
As to the kind of experiment: SPR, fibrils.

T1 sequence (peptide, as listed by the source): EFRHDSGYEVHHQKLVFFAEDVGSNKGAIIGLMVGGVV
T2 sequence (peptide, as listed by the source): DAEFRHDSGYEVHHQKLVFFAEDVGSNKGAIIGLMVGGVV

B1: PGA 5 (antibody, IgG1, V domains shown)
VH: EVKLVESGGGLVQPGGSLRLSCVTSGFTFTENYMSWVRQPPGKALEWLGFIRNKANGYTTEYSASVKGRFTISRDNSQSILYLQMNTLRAEDSATYYCARDWDYGSSHAMDYWGQGTSVTVSS
VL: DILLTQSPAILSVSPGERVSFSCRASQNIGTSMHWFQQRTNGSPRLLIKYASESVSGIPSRFSGSGSGTDFTLSINSVESGDIADYYCQQSNSWPFTFGSGTKLEI
notes: also called 1F2 2E3; PGAS
For orientation: Kd means a measure of binding affinity in units of concentration. The low end stands for tighter binding, the high end for weaker binding. Regarding B1, the Kd with pyro-Glu(3-40/42)-Aβ [1] is 37.3 nM; in the assay with pyro-Glu(3-40/42)-Aβ [2] it was 4.17 nM; in assay [3], 4.53 nM. In addition, the binding result with Aβ (1-40) fibrils and in the assay with wild-type Aβ(1-40) was “no binding” each time.
